Experimental data published in the supplement of paper PMC10567573.

B1: RHOBTB3 (parent)
chain: KVVEAHKIVLCAVSHVFMLLFNVK

Variants of: B1
Assay: protein stability index of a GFP-peptide fusion (GPS, HEK-293T) (PSI 1-6); higher = more stable
Conditions: c terminus: a fixed tail appended
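Note: lentivirally expressed fusions sorted by FACS into six bins by GFP to DsRed ratio, PSI derived from sequencing read proportions per bin multiplied by bin number.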

Protein stability index, by site and new letter:
C11: A 2.85 | W 2.66 | R 1.98 | D 2.13 | P 2.8 | N 1.88 | L 2.24 | E 1.86 | V 3.24 | F 1.94 | H 4.45 | S 1.98 | M 2.26 | K 1.75 | I 4.05 | Q 2.37 | T 1.99 | G 2.26
F21: P 1.98 | W 2.5 | M 3.68 | N 2.8 | E 1.88 | L 2.76 | H 2.51 | A 3.13 | K 1.76 | G 4.01 | Y 2.14 | I 3.17 | D 3.1 | V 3.87 | R 1.81
V13: K 3.18 | G 2.42 | S 2.92 | Y 2.62 | Q 2.9 | T 4.13 | E 2.5 | R 3.01 | I 2.66 | M 4.81 | H 2.36 | L 2.12 | N 2.33 | C 3.14 | W 1.82 | P 2.59 | A 1.41
L19: A 2.69 | R 3.74 | N 2.18 | G 2.75 | C 2.24 | F 3.32 | T 3.4 | S 2.2 | D 3.41 | I 3.67 | P 2.31 | W 3.11 | E 2.2 | Y 2.59
N22: A 2.86
V2: D 2.57 | S 3.24 | K 1.62 | I 3.58 | P 3.44 | C 2.18 | Y 1.86 | M 2.9 | A 2.96 | N 2.44 | G 2.64 | Q 2.04 | T 2.6 | L 2.32 | F 2.5 | E 2.64
H6: R 3.29 | Q 1.5 | K 2.65 | G 1.84 | L 1.75 | V 1.77 | A 1.84 | C 2.58 | N 3.4 | I 1.85 | M 1.63 | P 2.4 | W 2.24 | F 2.13 | T 1.79 | E 2.21 | S 1.92
A12: C 2.29 | E 2.31 | I 1.96 | Y 2.46 | P 2.73 | G 2.92 | R 2.33 | F 2.55 | Q 2.37 | D 3.75 | H 2.83 | M 2.2 | T 1.6 | L 3.63 | K 2.92 | V 2.57 | N 3.15 | S 2.78
A5: G 3.1 | M 3.42 | T 1.72 | H 2.9 | Q 4.3 | Y 3.88 | K 2.58 | S 3.05 | E 3.14 | V 2.48 | D 3.37 | W 3.03 | R 3.59 | P 3.11 | L 1.76 | N 2.07 | F 2.45 | C 2.77
H15: Y 3.36 | P 1.89 | I 3.89 | T 1.92 | Q 2.78 | V 3.1 | K 2.17 | D 3.14 | R 2.27 | C 3.87 | F 2.06 | S 2.82 | N 3.41
F17: C 3.12 | W 2.49 | R 2.23 | G 3.57 | T 2.9 | S 2.33 | E 3.12 | V 1.88 | M 2.78 | I 2.06 | A 2.4 | Q 2.41 | H 3.54 | D 2.52 | K 2.76
V3: I 3.11 | M 3.1 | Y 2.53 | F 3.62 | L 2.09 | R 2.02 | C 2.3 | P 3.35 | T 2.36 | Q 3.48 | N 3.87 | E 1.82 | G 2.38 | D 2.2 | S 2.39 | K 3.12
L10: E 2.73 | Y 3.18 | R 1.64 | K 2.13 | V 3.3 | I 2.64 | F 2.66 | A 1.75 | T 3.3 | W 1.55 | S 3.43 | P 1.82 | N 3.5 | D 2.5 | G 3.06
M18: N 3.02 | Q 2.43 | T 2.23 | D 1.92 | Y 2.5 | K 1.55 | A 3.04 | P 2.3 | C 2.3 | G 2.75 | S 1.95 | E 2.48 | H 2.34 | L 3.85 | F 3.57 | I 3.05 | R 1.14
I8: Q 2.41 | H 2.52 | E 1.98 | V 1.68 | Y 1.88 | C 2.2 | A 2.45 | N 1.89 | R 2.17 | T 2.93 | K 2.59 | M 3.3 | W 3.31 | D 2.04 | F 2.48 | G 2.84 | P 2.29
L20: Y 3.49 | Q 2.37 | M 2.63 | A 3.27 | D 3.54 | I 1.74 | V 2.42 | N 3.15 | G 1.26 | S 2.6 | W 1.9 | R 1.77 | H 3.28 | P 2.49 | E 1.65 | K 1.89 | F 2.97
E4: L 2.08 | K 3.02 | H 2.69 | S 1.9 | I 2.78 | A 2.24 | P 2.37 | T 2.53 | W 1.42 | F 2.23 | Y 2.75 | V 2.79 | Q 2.23 | C 2.67 | D 2.33 | R 2.69 | M 2.54
K1: Y 2.58 | T 2.71 | W 3.19
K7: P 2.02 | A 3.36 | Q 3 | V 2.31 | F 2.99 | W 2.34 | D 3.98 | T 2.64 | C 1.83 | Y 3.35 | G 2.79 | S 2.01 | M 2.93 | R 2.65 | E 2.9 | N 2.31 | L 2.74
S14: V 2.49 | M 3.96 | N 3.59 | T 2.95 | A 2.36 | D 2.17 | Q 1.94 | H 3.58 | L 2.6 | P 2.55 | Y 2.55 | F 2.8 | G 2.17 | K 2.65 | I 2.88 | R 1.41
V16: Q 3.14 | T 3.44 | A 2.97 | R 2.79 | N 3.11 | I 2.65 | P 3.16 | S 3.16 | M 2.3 | D 2.39 | L 2.43 | F 2.99 | W 3.09 | Y 2.19 | C 3.59 | G 3.44 | H 2.98 | E 3.26 | K 3.55
V9: L 3.24 | W 3.46 | Q 2.73 | Y 1.64 | C 2.32 | M 2.83 | F 2.7 | E 2.79 | A 1.87 | P 2.36 | D 2.67 | I 2.87 | K 3.01 | S 3.31 | R 3.25 | G 2.12 | T 2.47 | H 2.71
